This is an account of results in US20220153822A1 (ALYTAS THERAPEUTICS, published 2022).

This experiment has as its target T1, Perilipin epitope 2 peptide QYPPEKIASELKDTI (SEQ ID NO. 331) (human, Biotin-PEG Spacer and GGSGGS Linker (SEQ ID NO. 438) at the N-terminus, or Biotin-PEG Spacer and AAAAA Linker (SEQ ID NO. 439) at the C-terminus).
T1 construct: Two biotinylated variants were used for selection and ELISA; On the peptide array it stood without biotin; also called target peptide
T1 peptide: QYPPEKIASELKDTI
The experiment is described as follows: phage display selection and ELISA on biotinylated target peptide. (In general: ELISA stands for enzyme-linked immunosorbent assay.)

B1: Antibody No. 11 (antibody, V domains shown)
VH: QVQLVQSGAEVKKPGASVKVSCKASGYTFTSYGISWVRQAPGQGLEWMGWISAYNGNTNYAQKLQGRVTMTTDTSTSTAYMELRSLRSDDTAVYYCASLYCSGGSCYSALDPWGQGTLVTVSS
VL: QSVLTQPPSVSGAPGQRVTISCTGSSSNIGAGYDVHWYQQLPGTAPKLLIYGNSNRPSGVPDRFSGSKSGTSASLAITGLQAEDEADYYCQSYDSSLRYVVFGGGTKVTVL
notes: human IgG1, lambda or kappa light chain; also called 447-D12
For the molecule B1, the binding result is “binds”.
